Data published in US20110223107A1 (ALETHIA BIOTHERAPEUTICS, published 2011).
Blank lines part the entries; values can stand above or below the binder they belong to.

Experiments:
[1] = target: T1, monomeric recombinant KAAG1 (Homo sapiens (Human), UniProt Q9UBP8 1-84, limits assumed); assay: SPR (Biacore), antibody captured by anti-human Fc, 1:1 fit
T1 construct: Analyte of the Biacore experiment
T1 sequence: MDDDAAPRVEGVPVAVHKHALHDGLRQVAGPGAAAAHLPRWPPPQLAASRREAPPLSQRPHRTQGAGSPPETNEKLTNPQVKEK
Method: (§1) More precise measurements were conducted using Surface Plasmon Resonance (SPR) in a Biacore instrument. Kinetic analysis was used to compare the affinity of the chimeric 3D3 with the h3D3 as well as with hybrid antibodies encompassing different permutations of the light and heavy chains (see FIG. 18B). Briefly, anti-human Fc was immobilized on the Biacore sensor chip and chimeric or h3D3 was captured on the chip. Different concentrations of monomeric recombinant KAAG1 were injected and the data were globally fitted to a simple 1:1 model to determine the kinetic parameters of the interaction.

[2] = target: T2, recombinant Fc-KAAG1 fusion protein (full-length KAAG1) (human, UniProt Q9UBP8 1-84, biotinylated with NHS-biotin (sites not given)); assay: ELISA on recombinant Fc-KAAG1
T2 construct: also called recombinant human KAAG1; not shown: human Fc domain encoded by expression plasmid pYD5; vector-encoded residues between the Fc and the BamHI cloning site of pYD5
T2 sequence: T1 sequence
Method: The 96-well master plate of monoclonal preparations contained different concentrations of purified anti-KAAG1 Fabs in each well. A second stock master plate was prepared by diluting the Fabs to a final concentration of 10 μg/ml from which all subsequent dilutions were performed for ELISA measurements. To carry out the binding of Fc-KAAG1 to the monoclonal preparations, the Fc-KAAG1 was biotinylated with NHS-biotin (Pierce, Rockford, Ill.) and 10 ng/well was coated in a streptavidin 96-well plate. One nanogram of each Fab monoclonal preparation was added to each well and incubated at room temperature for 30 minutes. Bound antibody was detected with HRP-conjugated mouse anti-kappa light chain antibody in the presence of TMB liquid substrate (Sigma-Aldrich Canada Ltd., Oakville, ON) and readings were conducted at 450 nm in microtiter plate reader.
Since an antibody harboring effector functions was required, the h3D3 was assembled as a human IgG₁. ELISA-based assays were performed to directly compare the ability of the h3D3 […]. The methods used to perform these tests were as described in Example 3 using recombinant Fc-KAAG1.

[3] = target: T1, monomeric recombinant KAAG1; assay: SPR (Biacore): antibody captured on immobilised anti-human Fc, monomeric recombinant KAAG1 injected, global 1:1 fit; average KD; humanized light + humanized heavy chain, 'HH'
Method: as §1

[4] = target: T1, monomeric recombinant KAAG1; assay: SPR (Biacore): antibody captured on immobilised anti-human Fc, monomeric recombinant KAAG1 injected, global 1:1 fit; average KD; chimeric light + humanized heavy chain, 'CH'
Method: as §1

Ka [1]: 2.28e+09 M⁻¹
koff [1]: 0.00111 s⁻¹
kon [1]: 2.53e+06 M⁻¹ s⁻¹
EC50 (read off the curve) [2]: ~0.1 µg/mL
Kd [3]: 0.439 nM
B1: humanized 3D3 anti-KAAG1 antibody (human IgG1) (antibody, V domains shown)
VH: EVQLVQSGAEVKKPGASVKVSCKASGYIFTDYEIHWVRQAPGQGLEWMGVIDPETGNTAFNQKFKGRVTITADTSTSTAYMELSSLTSEDTAVYYCMGYSDYWGQGTLVTVSS
VL: DIVMTQSPDSLAVSLGERATINCKSSQSLLNSNFQKNFLAWYQQKPGQPPKLLIYFASTRESSVPDRFSGSGSGTDFTLTISSLQAEDVAVYYCQQHYSTPLTFGQGTKLEIKR
notes: The leader residues before them are left out; also called h3D3; HH

Ka [1]: 1.98e+09 M⁻¹
koff [1]: 0.00111 s⁻¹
kon [1]: 2.2e+06 M⁻¹ s⁻¹
Kd [4]: 0.505 nM
B2: 3D3 hybrid antibody: chimeric light chain expressed with the humanized heavy chain (antibody, human IgG1, V domains shown)
VH: B1 VH
VL: DIVMTQSPSSLAVSIGQKVTMNCKSSQSLLNSNFQKNFLAWYQQKPGQSPKLLIYFASTRESSIPDRFIGSGSGTDFTLTISSVQAEDLADYFCQQHYSTPLTFGAGTKLELKA
